Experimental data as given in publication PMC3898472, “Molecular Basis for DNA Double-Strand Break Annealing and Primer Extension by an NHEJ DNA Polymerase”.

Legend:
[1] = target: Mt-PolDom (crystal) (UniProt P9WNV3 1-300); test: crystal structure 2.4 A; 10 mM MnCl2; conditions: protein: recombinant
[2] = target: Mt-PolDom (LigD polymerase domain) (UniProt P9WNV3 1-300); test: DNase I footprinting; 5 ug protein; conditions: protein: recombinant; label: 32P 5'-end label

Row | Binder | binding result [1] | binding result [2]
1 | annealed break T/D (dsDNA, 5'-phosphate on D) DNA 1: GCCGCAGATC DNA 2: GCGGC | binds | –
2 | 1-nt gapped FP-T/FP-P/FP-D, 5'-P (dsDNA, 5'-phosphate on FP-D) DNA 1: GGCAGCTTGGATCTTGTCGAAAAACGTCAACATTCGCCTAGGCTTCGGCAATACTGAGGTCTTGTCGAAAAACGTCAACATTGCGTGGCC DNA 2: GGCCACGCAATGTTGACGTTTTTCGACAAGACCTCAGTAT DNA 3: GCCGAAGCCTAGGCGAATGTTGACGTTTTTCGACAAGATCCAAGCTGCC | – | binds
